The results in this text go back to the Immune Epitope Database (IEDB).

A value given as a limit tells only on which side of the number the result lay.

What all share (details): source organism: Pseudomonas fluorescens
One assay concerns the target HLA-A*01:01. As to the kind of experiment: IEDB peptide-MHC binding, purified MHC/direct/fluorescence; filed as Kd, often an IC50 or EC50 that approximates it; ≥ and ≤ were set here for values at or beyond the usual limits of such assays.
A further assay deals with HLA-A*02:01. The assay is described as above.
In the next assay the target is HLA-A*03:01. Described as above.
A further assay addresses HLA-A*11:01. The assay is described as above.
The target in another assay is HLA-A*31:01. The description is as above.
The target of a further assay is HLA-A*69:01. The assay is described as above.
In another assay the target is HLA-B*07:02. The assay is described as above.
A further assay has as its target HLA-B*08:01. The assay is described as above.
The target of the next assay is HLA-B*15:01. The assay is described as above.
Another assay deals with HLA-B*27:05. The description is as above.
The target of a further assay is HLA-B*35:01. The assay is described as above.
Another assay addresses HLA-B*40:01. The description is as above.
A further assay addresses HLA-B*58:01. The assay is described as above.
In a further assay the target is HLA-B*15:02. The assay is described as follows: IEDB peptide-MHC binding, purified MHC/competitive/fluorescence; filed as Kd, often an IC50 or EC50 that approximates it; ≥ and ≤ were set here for values at or beyond the usual limits of such assays.

Consider FVSVYFSDY, for which the Kd with HLA-A*01:01 was 0.135 µM; in the assay with HLA-A*02:01 it was no less than 20 µM; with HLA-A*03:01, no less than 20 µM; in the assay with HLA-A*11:01 it was no less than 20 µM; in the assay with HLA-A*31:01 it was no less than 20 µM; with HLA-A*69:01 it was no less than 20 µM. The Kd with HLA-B*07:02 was no less than 20 µM; in the assay with HLA-B*08:01, no less than 20 µM; with HLA-B*15:01 it was 0.25 µM; in the assay with HLA-B*27:05, no less than 20 µM; with HLA-B*35:01 it was 0.0654 µM; in the assay with HLA-B*40:01, no less than 20 µM. For the same sequence, the figures for the Kd with HLA-B*58:01 and with HLA-B*15:02 were no less than 20 µM and 0.04 µM, respectively.
